Test results from the nanobody polyreactivity screen of Harvey et al. (2022).

Experiment: yeast display, Sf9 membrane polyspecificity reagent, FACS + sequencing; frameworks hold sequencing errors
Procedure, shortened: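 Synthetic nanobody libraries on Saccharomyces cerevisiae BJ5465 were galactose-induced for 36–48 hours, stained 1 hour at 4 °C with 10% biotinylated, detergent-solubilized Sf9 membrane reagent and enriched on streptavidin microbeads. FACS then separated cells into low and high (top ~1%) gates by anti-HA (expression) and streptavidin (reagent binding) fluorescence. Genes were colony-PCR amplified, MiSeq 2 × 250 sequenced and CDR-length filtered. A clone's polyreactivity label is that of its gate of origin.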

| Sequence | polyreactivity (PSR sort gate) |
| --- | --- |
| QVQLVESGGGLVQAGGSLRLSCAASGRIFPYYAMGWYRQAPGKERELVAAISRIGGRTYYADSVKGRFTISRDNAKNTVSLQMNSLKPEDTAVYYCAAGYGGTFNCGQGTQVTVSS | high polyreactivity |
| QVQLVESGGGLVQAGGSLRLSCAASGLTFRFYAMGWYRQAPGKERELVAVISGRGTSTYYADSVKGRFTISRDNAKNTVYLLMNSLKPEDTAVYYCAARYVAYAYVGNDYWGQGTQLTVSS | high polyreactivity |
| QDQPVESGGGLVQAGGSLRLSCDDSGFTFVYYAMGWYRQAPGQERELVAAISTGGSTYYADSVKWRFTISRDNAKNTVYLQMNSLKPEDTAVYYCNAVYTYRWRFNYWGQGTQVTVSS | high polyreactivity |
| QVQLVESGGGLVQAGGSLRLSCAASGNFFVLYAMGWYRQAPGKERELVASITSDGITYYADSGKGRFTISRDNAKNTVYLQMNSLKPEDTAVYYCAVDRSYRYLPRGDYWGQGTQVTVSS | low polyreactivity |
| QVQLVESGGGLVQAGGSLRLSCAASGRIFPYYAMGWYRQAPGKERELVAAITARGGRTYYADSVKGRFSISRDNAKNTVYLQMNSLKPEETAVYYCNTGGRSGSPGYDYWGQGTQVTVSS | high polyreactivity |
| QVQLVESGGGLVQAGGSLRLSCAASGSTFYPYAMGWYRQAPGKERELVAAISSGGSTYYADSVKGRFTISRDNAKNTVYLQMNSLKPEDTAVYYCAADLYYAYYWGQGTQVTVSS | low polyreactivity |
| QVQLVESGGGLVQAGGSLRLSCAASGSIFTHYAMGWYRQAPGKERELVAAISRRGGSTYYADSVKGRFTISRDNAKNTVYLQMNSLKPEDTAVYYCANSPDTAKEYDYWGQGTQVTVSS | high polyreactivity |
| QVQLVESGGGLVQAGGSLRLSCAASGRTFPFYAMGWYRQAPGKERELVAAINSGGITNYADSVKGRFTISRDNAKYTVYLQMNSLKPEDTAVYYCAAKTAFYRERGYWGQGTQVTVSS | low polyreactivity |
| QDQLVESGGGLGQAGGSLRLSCAASGSTFNNYAMGWYRQAPGKERELVAVITKRGGSTYYADSVKGRFTISRDTAKNTVHLQMNSLKPEDTAVYYCPASSLYDGYWGQGTQVTVSS | high polyreactivity |
| QVQLVESGGGLVQAGGSRRLSCAASGRTFQYYAMGCYRQATGKERELVAAINNSGGSTYYSDSVKGRFTISRDNAKNTFYLQMNSLKQEDTAVYYCAAVSYRRHFGPYNYWGQGTQVTVSS | low polyreactivity |
| QVQLQESGGGLVQAGGSQRLSCASSGYIFYFQYMGWYRQAPGKEREFVAAISDGANTNYADSVKGRFTISRDNAKNTEYLQMNSLKPEDTAVYYCNADQYYWYEYDYWGQGTQVTVSS | low polyreactivity |
| QVQLVESGGGLVQAGGSLRLSCAASGFTFYYYTLGWYRQAPGKVRELVARITTRGTSTYYADSVKGRFRISRDTPKNTVYLPMNSLKPEDTAVYYCAAQVGRGYEVYAVYKYGYWGQGTQVTVSS | high polyreactivity |
| QVQLVESGGGLVQAGGSLRLSCAASGRTFYHYAMGWYRQAPGKERELVAGITGRGRSTYYADSVKGRFTISRDNAKNTVYLQMNSLKPEDTAVYYCAAARLYSGAASDYGYWGQGTQVTVSS | high polyreactivity |
| QVQLVESGGGLVKAGGSLRLSCAASGLIFAYYDMGWYRQAPGKERELVASITGSGGDTYYADSVKGRFTISRDNAKNTVYLQMNSLKPEDTAVYYCNAYYGAAFTYWDDYWGQGTQVTVSS | low polyreactivity |
| QVQRVESGGGLVQAGGSLRLSCAASGFILNQYAMGWYRQAPGKASELVAAISNGGSTNYADSVKGRFTISRDNAKNTVYLQMNSLKPEDTAVYYCAKDQSLTYSSLWGYDYWGQGTQVTVSS | low polyreactivity |
| QVQLVESGGGLVQAGGSLRLSCAASGSIFRWNAMGWYRQAPGKERDLVDVINSSVGSTYYADSVKGRFTISRDNAKNTVYLQMYSLKPEDTAVYYCAADVELGWGNSVAYEYWGQGTQVTVSS | low polyreactivity |
| QDQLVESGGGLVQAGGSLRLSCAASGFTIQAYAMGWYRQAPGKERELVATISKSGGRTYYADSVKGRFTISRDNAKNTVYLQMNSLKPEDTAVYYCNKRVSGRHYDYWGQGTQVTVSS | high polyreactivity |
| QVQLVESGVGLVQAGGSLRLSCAASGSPFRRNALGWYRQAPGKERELVAAITWRGTSTYYADSVKGRFTISRDNAKNTVYLQMNSLIPEDTAVYYFATSKSRLRYDYWGQGTQVTVSS | high polyreactivity |
| QVQLVESGGGLVQAGGSLRLSCAASGRTFYNYAMGWYRQAPGKERELVAAITRGGSTYYADSVKGRFTISRDNAQNTVYLQMNSLKPEDTAVYYCNAKYIKGRDWGQGTQVTVSS | high polyreactivity |
| QVQLEESGGGLVQAGGSLRLSCDASGSTLLYYAMGWYRPAPGKERELVAAISWRGGSTYYADSVKGRFTISRDNAKNTVYLQMNSLKPEDTAVYYCAARSLRLVGPYYYWGEGTQVTVSS | high polyreactivity |
| QVQLVESGGGIDQAGGSLRLSCAASGNTFYWYAMGWYRQAPGKERDLVAAISRGGRTNYADSVKGRFTISRDNAKNTVYLQMNSLKPEDTAVYFCAKDSNYPQPSKGWYRYDYWGLGTQVTVSS | high polyreactivity |
| QVQLVESGGGLVQAGGSLRLSCAASGFIFDYYAMGWDRQAPGKESELVAAIRRSGGTTYYADSVKGRFTISRDNAKNTVYLLMNSLKPEDTAVYYCNVDSGEFDYVWVYTYDYWGQGTQVTVSS | low polyreactivity |

| Sequence | polyreactivity (PSR sort gate) |
| --- | --- |
| QVQLVESGGGLVQAGGSLRLSCAASGRTFNFYSMGCYRQAPRKERELVAAISHGDSTYYADSVKGRFTISRDNAKNTVYLQMNSLNPEDTAVYYCAASQKYYLRKYEYWGQGTQVTVSS | low polyreactivity |
| QVQLVEAGGRLVQAGGSLRLSCAASGGTFGTNNMGWYRQAPGKEMEVVAAISKRGGRTYYADSVKGRFTISRDNAKNTVYLQMNSLKPEDTAVYYCAADTGGNPKYDYWGQGTQVTVSS | high polyreactivity |
| QVQLVESGGGLVQAGGSLRLSCAASGFIFEYYAMGWYRQAPGKERELVAAISQSGGSTYYADSVKGRFTISRDNAKNTVYLQMNSLKPEDTAVYYCNKTRYSRSYYEYDYWGQGTQVTVSS | low polyreactivity |
| QVQLVESGGGLVQAGGSLRLSCAASGRTLGSYAMGWYRQAPGKETELVAAIRGSGVSTYYADSVKGRFTISRDNAKNTVYLQMNSLNPEDTAVYYCAARSYIRVWKKGAVQRSVYYWGQGTQVTVSS | high polyreactivity |
| QVQLVESGGGLVQAGGSLRLSCAASDTPSSSMLMGWYRQAPGKERQLVAAISGSDGTTYYADSVKGRFTISRDNAKNTVYLQMNSLKPEDTAVYYCAADDRVDSGYIKDDYWGQGTQVTVSS | low polyreactivity |
| QVQLVESGGGLVQAGGSLRLSCAASGFIFGRYTMGWYRQAPGKERELVAAISGSDVSTYYADSVKGRFTISRDNAKNTVYLQMNSLKPEDTAVYYCAADAPWAYYEYDYWGQGTQVTVSS | low polyreactivity |
| QVQLVESGGGLVQAGGSLRLSCAASGSIFRYYDMGWYRQAPGKERELVAAISWSGGTTYYADSVKGRFTISRDNAKNSVYLQMNSLNPEDTAVYYCNRVRYPSFVYWGQGTQVTVSS | high polyreactivity |
| QVQLVESGGGVVQAGGSLRLSCAASGRIFYGNAMGWYRQAPGKERELVAAISSGTSTNYADSVKGRFTISRDNAKNTVYLQMTSLKPEDTAVYYCAAGSYSRYLYSLYFDFDYWGQGTQVTVSS | low polyreactivity |
| QVQLVESGGGLVQAGGRLRLSCAASGSTFHHNVMGWYRQAPGKEWELVAAITSSGGSTYYADSVKGRFTISRDNAKNTVYLQMNSLKPEDTAVYYCAKDKLIFYRVGSDYWGQGTQVNVSS | low polyreactivity |
| QVQLVESGVGLVQAGGSLRLSCAASGRIFNRNAMGWYRQAPGKERELVAAISHSVGSTYADSVKGRFTLSRDNAKNTVYLQMNSLKPEDTAVYYCAAKYYFEWNSALDYWGQGTQVTVSS | low polyreactivity |
| QVQHVESGGGLVQAGGSLRLSCAASGSTFGRYGMGWYRQAPGTERELVAAISRGGGTNYADSVKGRFTISRDNAKKTVYLQMNSLKPEDTAVYYCNARWYYALYDYWGQGTQVTVSS | low polyreactivity |
| QVQLVESGGGLVQAGGSHRLSCAASGRIFPSYAMGWYRQAPGKQRELVAAISKYGGRTYYADSVKGRFTISRDNAKNTVYLQMNSLKPEDTEVYYCAADGFRYYSWTRFSYYSGYDYWGQGSQVTVSS | high polyreactivity |
| QVQLVESGGGLVQAGGSLRLSCAASGFIFHHYAMGWYRPAPGKERELVAAISKSGGSTYYADSVKGRFTISRDNAKNTVYLQMNSLKPEDTAVYYCAAYKRSGLKYGHWGQGTQVTVSS | high polyreactivity |
| QVQLVESGGGLVQAGGSLRLSCAPSGFIFPLYTMGWYTQAPGKERELVAAIDFSGASTYYADSVKGRFTISRDNAKNTVYLLMNSLKPEDTAVYYCATYGSYRITVFYAYYYWGQGTQVTVSS | low polyreactivity |
| QVQLVESGGGLVQAGGSLRLSCAASGSIFKSYAMGWYRQAPGKERELVAAISGSGGRTYYADSVKGRFTISRDNAKNTVYLQMNSLKPEDTAVYYCNALASIRTHTGYAYSPPYDYWGQGTQVTVSS | high polyreactivity |
| QVQLVESGGGLVQAGGSLSLSCAASGRIFRRYAMGWYRPAPGKERELVASISSGGSTNYADSVKGRFTISRDNAKNTVYLQMNSLKPEDTAVYYCDADRARYYYQAYGAYGYWGQGTQVTVSS | high polyreactivity |
| QVQLVESVGGLVQAGGSLRLSCAASGSTFYGYAMGWYRQAPGKETELVAAINWSGGSTFYADSVKGRFTISRDNAKNTVYLKMNSLKPEDTAVYYCNKAWRGSVSRRYYYWGQGTQVTVSS | high polyreactivity |
| QVQLVESGGGLVQAGGSLRLSCAASGSIFYWYAMGWYRQAPGKERELVASITTAGSTYYADSVKGRFTISRDNAKNTVYLQMNSLKPEDTAVYYCNTVPYGYHGYLYLYTYGYWGQGTQVTVSS | high polyreactivity |
| QVQLVESGGGLVQAGGSLRLSCAASGLTFRLNAMGWYRQAPGKERELVAAITAIGDRTYYADSVKGRFTISRDNAKNTVYLQMNSLKPEDTAVYYCNVTPRRAQVRIGNYWGQGTQVTVSS | high polyreactivity |
| QVQLVESGGGLVQAGGSLRLSCAASGRTFYRNVMGWYRQAPGKERELVAAISWSGGRTYYADSVKGRFTISRDNAKNTVYLQMNSLKPEDTAVYYCARYDRGGRHYYYWGQGTQVTVSS | high polyreactivity |
| QVQLVESAAGLVQAGGSLRLSCAASGLNSSYYAMGWYRQAPGKERELVAAISRCGSTNYADSVKGRFTISRDNGKNTLYLQMNSLKPEDTAVYYCNADEYGGSTGRKGRYNYWGQGTQVTVSS | low polyreactivity |
